*: point of attachment. βGlcNAc = CC(=O)N[C@@H]1[C@@H](O)[C@H](O)[C@@H](CO)O[C@H]1*

The record followed here is paper PMC3476531, “Synergy of Peptide and Sugar in O-GlcNAcase Substrate Recognition” (Chemistry & Biology, 2012).

The target in assay [1] is T1, human O-GlcNAcase (hOGA), wild-type (human) (UniProt O60502).
T1 sequence: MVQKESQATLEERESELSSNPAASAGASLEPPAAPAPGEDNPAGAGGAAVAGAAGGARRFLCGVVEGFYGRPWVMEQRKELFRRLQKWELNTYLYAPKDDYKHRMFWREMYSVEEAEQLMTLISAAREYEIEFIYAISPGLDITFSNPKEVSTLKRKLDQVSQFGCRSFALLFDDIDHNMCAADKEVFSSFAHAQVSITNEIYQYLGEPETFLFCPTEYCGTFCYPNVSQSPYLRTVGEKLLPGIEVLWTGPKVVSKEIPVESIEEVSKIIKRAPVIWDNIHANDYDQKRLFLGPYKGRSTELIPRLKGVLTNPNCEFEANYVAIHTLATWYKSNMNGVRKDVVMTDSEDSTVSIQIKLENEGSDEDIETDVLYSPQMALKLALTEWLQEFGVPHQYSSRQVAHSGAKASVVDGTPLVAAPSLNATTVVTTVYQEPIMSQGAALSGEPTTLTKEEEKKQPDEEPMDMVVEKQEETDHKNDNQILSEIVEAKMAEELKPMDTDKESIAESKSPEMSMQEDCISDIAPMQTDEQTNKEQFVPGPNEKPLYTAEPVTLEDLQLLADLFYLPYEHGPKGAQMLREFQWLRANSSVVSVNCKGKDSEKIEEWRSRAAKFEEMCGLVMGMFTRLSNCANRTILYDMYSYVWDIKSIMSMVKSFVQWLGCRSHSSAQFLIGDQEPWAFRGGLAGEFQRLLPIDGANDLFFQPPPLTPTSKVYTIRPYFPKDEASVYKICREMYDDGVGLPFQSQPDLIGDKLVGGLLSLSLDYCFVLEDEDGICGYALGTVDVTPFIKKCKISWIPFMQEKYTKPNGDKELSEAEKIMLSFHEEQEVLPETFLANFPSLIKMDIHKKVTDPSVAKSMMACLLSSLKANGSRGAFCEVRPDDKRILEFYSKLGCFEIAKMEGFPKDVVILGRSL

The target of assay [2] is T1, human O-GlcNAcase (hOGA), wild-type (human). The source holds these as a separate data set.
Assay [3] concerns the target T2, human O-GlcNAcase (hOGA) Y69Q (human) (UniProt O60502).
T2 sequence: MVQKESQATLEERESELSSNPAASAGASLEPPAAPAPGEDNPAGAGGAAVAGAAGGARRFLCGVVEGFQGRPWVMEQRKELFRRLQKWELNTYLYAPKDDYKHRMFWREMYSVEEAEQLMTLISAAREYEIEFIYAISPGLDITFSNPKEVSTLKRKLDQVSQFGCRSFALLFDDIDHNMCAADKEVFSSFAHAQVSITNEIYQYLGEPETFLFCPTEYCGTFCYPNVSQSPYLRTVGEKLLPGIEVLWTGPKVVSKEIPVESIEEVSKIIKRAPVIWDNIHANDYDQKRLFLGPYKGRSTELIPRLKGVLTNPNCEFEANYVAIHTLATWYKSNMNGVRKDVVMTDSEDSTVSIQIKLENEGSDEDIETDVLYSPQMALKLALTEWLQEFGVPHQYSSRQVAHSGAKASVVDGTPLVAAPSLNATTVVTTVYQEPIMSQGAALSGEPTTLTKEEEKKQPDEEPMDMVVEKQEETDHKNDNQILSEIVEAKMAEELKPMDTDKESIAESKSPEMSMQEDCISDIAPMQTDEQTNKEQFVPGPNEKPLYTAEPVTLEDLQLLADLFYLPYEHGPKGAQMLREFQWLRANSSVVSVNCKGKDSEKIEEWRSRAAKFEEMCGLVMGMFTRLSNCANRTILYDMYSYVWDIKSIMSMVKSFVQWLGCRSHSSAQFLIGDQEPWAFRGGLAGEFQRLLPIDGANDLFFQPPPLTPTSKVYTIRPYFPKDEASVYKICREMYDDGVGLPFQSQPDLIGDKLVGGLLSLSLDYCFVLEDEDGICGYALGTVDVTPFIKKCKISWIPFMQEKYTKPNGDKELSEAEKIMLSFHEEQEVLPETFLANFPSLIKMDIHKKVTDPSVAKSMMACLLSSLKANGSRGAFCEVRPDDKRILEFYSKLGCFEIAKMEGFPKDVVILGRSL

Assay [4] addresses T3, human O-GlcNAcase (hOGA) Y69F (human) (UniProt O60502).
T3 sequence: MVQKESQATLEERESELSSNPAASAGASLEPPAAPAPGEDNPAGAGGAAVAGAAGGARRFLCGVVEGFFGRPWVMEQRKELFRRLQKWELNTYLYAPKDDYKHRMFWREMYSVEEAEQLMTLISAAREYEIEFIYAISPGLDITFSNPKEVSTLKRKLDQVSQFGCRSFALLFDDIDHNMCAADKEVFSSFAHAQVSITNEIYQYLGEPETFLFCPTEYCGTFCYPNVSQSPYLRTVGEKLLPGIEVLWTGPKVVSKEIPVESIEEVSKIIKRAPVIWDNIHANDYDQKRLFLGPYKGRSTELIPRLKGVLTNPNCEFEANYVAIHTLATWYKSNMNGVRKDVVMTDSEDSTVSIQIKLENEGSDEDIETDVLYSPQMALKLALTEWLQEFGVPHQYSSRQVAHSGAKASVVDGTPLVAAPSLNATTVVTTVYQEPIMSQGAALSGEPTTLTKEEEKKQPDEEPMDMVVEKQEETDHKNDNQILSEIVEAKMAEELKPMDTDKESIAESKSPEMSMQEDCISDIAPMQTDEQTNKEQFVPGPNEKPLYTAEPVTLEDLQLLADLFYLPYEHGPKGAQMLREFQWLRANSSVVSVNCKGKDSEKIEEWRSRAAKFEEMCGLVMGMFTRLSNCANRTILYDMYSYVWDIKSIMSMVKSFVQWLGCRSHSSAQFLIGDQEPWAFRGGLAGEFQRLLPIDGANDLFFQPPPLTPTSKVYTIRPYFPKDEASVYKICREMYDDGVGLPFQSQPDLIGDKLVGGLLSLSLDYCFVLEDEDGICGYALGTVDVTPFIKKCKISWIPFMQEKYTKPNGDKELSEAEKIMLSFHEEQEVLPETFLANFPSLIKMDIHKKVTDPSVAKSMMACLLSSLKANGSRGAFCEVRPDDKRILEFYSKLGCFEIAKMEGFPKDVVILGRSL

Assay [5] has as its target T4, human O-GlcNAcase (hOGA) Y69K (human) (UniProt O60502).
T4 sequence: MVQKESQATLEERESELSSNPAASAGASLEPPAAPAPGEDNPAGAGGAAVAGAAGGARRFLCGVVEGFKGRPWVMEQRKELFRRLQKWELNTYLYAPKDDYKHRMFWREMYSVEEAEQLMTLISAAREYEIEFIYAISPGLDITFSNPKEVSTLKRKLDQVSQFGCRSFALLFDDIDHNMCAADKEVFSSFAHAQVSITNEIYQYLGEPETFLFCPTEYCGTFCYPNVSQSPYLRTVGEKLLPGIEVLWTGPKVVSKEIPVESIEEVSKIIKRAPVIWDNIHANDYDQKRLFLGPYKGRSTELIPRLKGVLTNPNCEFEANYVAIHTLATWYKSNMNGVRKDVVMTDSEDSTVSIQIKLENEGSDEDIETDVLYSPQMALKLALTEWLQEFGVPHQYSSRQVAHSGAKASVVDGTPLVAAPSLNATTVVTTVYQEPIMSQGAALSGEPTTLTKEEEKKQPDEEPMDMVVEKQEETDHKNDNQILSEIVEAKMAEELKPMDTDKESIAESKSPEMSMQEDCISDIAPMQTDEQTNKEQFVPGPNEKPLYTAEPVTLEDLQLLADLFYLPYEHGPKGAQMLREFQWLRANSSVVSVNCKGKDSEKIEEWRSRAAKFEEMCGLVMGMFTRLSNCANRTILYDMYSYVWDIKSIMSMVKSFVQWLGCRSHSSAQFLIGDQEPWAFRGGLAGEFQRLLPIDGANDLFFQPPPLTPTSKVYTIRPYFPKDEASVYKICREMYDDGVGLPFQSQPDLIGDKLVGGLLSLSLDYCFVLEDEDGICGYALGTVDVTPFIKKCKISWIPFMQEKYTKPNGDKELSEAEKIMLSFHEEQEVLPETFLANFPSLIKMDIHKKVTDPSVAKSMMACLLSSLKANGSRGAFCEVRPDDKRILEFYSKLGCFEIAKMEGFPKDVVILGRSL

In assay [6] the target is T5, human O-GlcNAcase (hOGA) Y69S (human) (UniProt O60502).
T5 sequence: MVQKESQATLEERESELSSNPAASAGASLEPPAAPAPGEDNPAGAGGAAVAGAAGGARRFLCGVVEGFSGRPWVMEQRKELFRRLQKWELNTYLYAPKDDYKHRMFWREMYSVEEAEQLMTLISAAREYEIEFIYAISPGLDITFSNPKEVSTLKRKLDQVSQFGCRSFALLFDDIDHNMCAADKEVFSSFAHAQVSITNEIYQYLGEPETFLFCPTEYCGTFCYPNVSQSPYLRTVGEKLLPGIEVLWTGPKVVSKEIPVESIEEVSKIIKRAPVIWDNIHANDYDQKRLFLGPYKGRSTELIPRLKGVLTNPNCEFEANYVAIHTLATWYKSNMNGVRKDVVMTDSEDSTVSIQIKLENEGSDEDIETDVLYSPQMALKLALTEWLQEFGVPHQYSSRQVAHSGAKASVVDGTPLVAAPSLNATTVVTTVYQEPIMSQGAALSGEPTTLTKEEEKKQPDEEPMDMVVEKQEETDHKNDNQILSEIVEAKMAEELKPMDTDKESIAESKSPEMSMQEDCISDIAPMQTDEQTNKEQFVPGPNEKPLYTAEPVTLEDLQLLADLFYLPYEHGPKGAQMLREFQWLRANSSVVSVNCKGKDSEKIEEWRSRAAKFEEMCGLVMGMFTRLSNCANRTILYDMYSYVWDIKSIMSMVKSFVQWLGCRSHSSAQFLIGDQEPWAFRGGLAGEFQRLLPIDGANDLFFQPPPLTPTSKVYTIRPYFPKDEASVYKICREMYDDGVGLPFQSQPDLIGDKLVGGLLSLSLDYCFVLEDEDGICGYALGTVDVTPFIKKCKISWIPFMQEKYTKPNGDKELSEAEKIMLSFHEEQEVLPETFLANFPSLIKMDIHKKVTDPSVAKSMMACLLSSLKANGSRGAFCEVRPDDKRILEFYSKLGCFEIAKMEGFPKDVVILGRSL

For the molecule VPHSSAQ [TAB1 peptide (Ser395) VPHS(O-GlcNAc)SAQ, altered sequence], the KM (hOGA) of the glycopeptide substrate (substrate competition assay with 4MU-GlcNAc as reporter substrate) in assay [1] stood at 810 µM.

B1: p53 peptide QLWVDS(O-GlcNAc)TPPPG (peptide)
peptide: Ac-QLWVDS(βGlcNAc)TPPPG-NH2
SMILES: CC(=O)N[C@H]1[C@H](OC[C@H](NC(=O)[C@H](CC(=O)O)NC(=O)[C@@H](NC(=O)[C@H](Cc2c[nH]c3ccccc23)NC(=O)[C@H](CC(C)C)NC(=O)[C@H](CCC(N)=O)NC(C)=O)C(C)C)C(=O)N[C@H](C(=O)N2CCC[C@H]2C(=O)N2CCC[C@H]2C(=O)N2CCC[C@H]2C(=O)NCC(N)=O)[C@@H](C)O)O[C@H](CO)[C@@H](O)[C@@H]1O
On to B1, for which the KM of the glycopeptide substrate (substrate competition assay with 4MU-GlcNAc as reporter substrate) in assay [2] turned out to be 21 µM.
As to VAHSGAK [hOGA peptide VAHS(O-GlcNAc)GAK], the KM of the glycopeptide substrate (substrate competition assay with 4MU-GlcNAc as reporter substrate) in assay [3] was above 4000 µM; in assay [4], 1200 µM; in assay [5], above 4000 µM; in assay [6], above 4000 µM.

B2: TAB1 peptide (Ser395) VPYS(O-GlcNAc)SAQ, original sequence (peptide)
peptide: Ac-VPYS(βGlcNAc)SAQ-NH2
SMILES: CC(=O)N[C@H]1[C@H](OC[C@H](NC(=O)[C@H](Cc2ccc(O)cc2)NC(=O)[C@@H]2CCCN2C(=O)[C@@H](NC(C)=O)C(C)C)C(=O)N[C@@H](CO)C(=O)N[C@@H](C)C(=O)N[C@@H](CCC(N)=O)C(N)=O)O[C@H](CO)[C@@H](O)[C@@H]1O
Take B2: in assay [1], the KM (hOGA) of the glycopeptide substrate (substrate competition assay with 4MU-GlcNAc as reporter substrate) was determined as 4100 µM.
